Experimental data as given in paper PMC7797052 (Nucleic Acids Research, 2020).
One block for each binder: values may come before it.

Tests used:
[1] = molecular target: T1, L3BR (residues 825-922) (human, UniProt P49916-3 825-922); experiment: native gel or EMSA
T1 sequence (looked up): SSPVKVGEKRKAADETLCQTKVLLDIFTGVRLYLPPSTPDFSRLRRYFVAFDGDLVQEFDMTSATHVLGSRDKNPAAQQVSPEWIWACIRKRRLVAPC

[2] = molecular target: X1BR2-GFP (C-terminal BRCT domain of XRCC1 fused to C-terminal GFP) (human, UniProt P18887 538-633); experiment: GFP-fluorescence-based competition binding assay
[3] = molecular target: the molecule itself; experiment: SEC
[4] = molecular target: the molecule itself; experiment: SAXS

B6: MBP-L3BR^832 (C-terminal BRCT domain of DNA ligase IIIα, residues 832-922, N-terminal MBP fusion) (domain or fragment, human, UniProt P49916-3 832-922, looked up)
chain: EKRKAADETLCQTKVLLDIFTGVRLYLPPSTPDFSRLRRYFVAFDGDLVQEFDMTSATHVLGSRDKNPAAQQVSPEWIWACIRKRRLVAPC
stoichiometry N [3]: 2 | EC50 [2]: 1240 nM

B7: L3BR^832 fused to C-terminal GFP (domain or fragment, human, UniProt P49916-3 832-922, looked up)
chain: EKRKAADETLCQTKVLLDIFTGVRLYLPPSTPDFSRLRRYFVAFDGDLVQEFDMTSATHVLGSRDKNPAAQQVSPEWIWACIRKRRLVAPC
stoichiometry N [3]: 2

B8: L3BR^832 (untagged, residues 832-922 of DNA ligase IIIα) (domain or fragment, human, UniProt P49916-3 832-922, looked up)
chain: EKRKAADETLCQTKVLLDIFTGVRLYLPPSTPDFSRLRRYFVAFDGDLVQEFDMTSATHVLGSRDKNPAAQQVSPEWIWACIRKRRLVAPC
stoichiometry N [4]: 2

B9: phosphorylated XRCC1ΔN (XRCC1ΔN-p, residues 294-633) (domain or fragment, human, UniProt P18887 294-633, looked up)
chain: AVTGKPRGEGTEPRRPRAGPEELGKILQGVVVVLSGFQNPFRSELRDKALELGAKYRPDWTRDSTHLICAFANTPKYSQVLGLGGRIVRKEWVLDCHRMRRRLPSQRYLMAGPGSSSEEDEASHSGGSGDEAPKLPQKQPQTKTKPTQAAGPSSPQKPPTPEETKAASPVLQEDIDIEGVQSEGQDNGAEDSGDTEDELRRVAEQKEHRLPPGQEENGEDPYAGSTDENTDSEEHQEPPDLPVPELPDFFQGKHFFLYGEFPGDERRKLIRYVTAFNGELEDYMSDRVQFVITAQEWDPSFEEALMDNPSLAFVRPRWIYSCNEKQKLLPHQLYGVVPQA
modifications: phosphorylated by casein kinase II (CK2) in the region between X1BR1 and X1BR2; sites not given
binding result [4]: binds

Continued, values first:

binding result [1]: binds
B1: X1BR2 L626E (residues 538-633), designated wild type (WT) in Figure 1E (domain or fragment, human, UniProt P18887 538-633, looked up)
chain: ELPDFFQGKHFFLYGEFPGDERRKLIRYVTAFNGELEDYMSDRVQFVITAQEWDPSFEEALMDNPSLAFVRPRWIYSCNEKQKLLPHQEYGVVPQA

binding result [1]: binds
B2: X1BR2 Y565A (on the L626E template, residues 538-633) (domain or fragment, human, UniProt P18887 538-633, looked up)
chain: ELPDFFQGKHFFLYGEFPGDERRKLIRAVTAFNGELEDYMSDRVQFVITAQEWDPSFEEALMDNPSLAFVRPRWIYSCNEKQKLLPHQEYGVVPQA

binding result [1]: binds
B3: X1BR2 N570A (on the L626E template, residues 538-633) (domain or fragment, human, UniProt P18887 538-633, looked up)
chain: ELPDFFQGKHFFLYGEFPGDERRKLIRYVTAFAGELEDYMSDRVQFVITAQEWDPSFEEALMDNPSLAFVRPRWIYSCNEKQKLLPHQEYGVVPQA

binding result [1]: binds
B4: X1BR2 F569A (on the L626E template, residues 538-633) (domain or fragment, human, UniProt P18887 538-633, looked up)
chain: ELPDFFQGKHFFLYGEFPGDERRKLIRYVTAANGELEDYMSDRVQFVITAQEWDPSFEEALMDNPSLAFVRPRWIYSCNEKQKLLPHQEYGVVPQA

EC50 [2]: 670 nM
B5: MBP-L3BR^844 (L3BR^832 lacking its 12 N-terminal residues, MBP fusion) (domain or fragment, human, UniProt P49916-3 844-922, looked up)
chain: TKVLLDIFTGVRLYLPPSTPDFSRLRRYFVAFDGDLVQEFDMTSATHVLGSRDKNPAAQQVSPEWIWACIRKRRLVAPC
